The test has as its target non-natural gp130:IL-11R:LIFR cytokine receptor complex on Ba/F3-gp130:IL-11R:LIFR cells (UniProt P40189).

Chain of non-natural gp130:IL-11R:LIFR cytokine receptor complex on Ba/F3-gp130:IL-11R:LIFR cells (P40189 23-918, chain 1 of 3): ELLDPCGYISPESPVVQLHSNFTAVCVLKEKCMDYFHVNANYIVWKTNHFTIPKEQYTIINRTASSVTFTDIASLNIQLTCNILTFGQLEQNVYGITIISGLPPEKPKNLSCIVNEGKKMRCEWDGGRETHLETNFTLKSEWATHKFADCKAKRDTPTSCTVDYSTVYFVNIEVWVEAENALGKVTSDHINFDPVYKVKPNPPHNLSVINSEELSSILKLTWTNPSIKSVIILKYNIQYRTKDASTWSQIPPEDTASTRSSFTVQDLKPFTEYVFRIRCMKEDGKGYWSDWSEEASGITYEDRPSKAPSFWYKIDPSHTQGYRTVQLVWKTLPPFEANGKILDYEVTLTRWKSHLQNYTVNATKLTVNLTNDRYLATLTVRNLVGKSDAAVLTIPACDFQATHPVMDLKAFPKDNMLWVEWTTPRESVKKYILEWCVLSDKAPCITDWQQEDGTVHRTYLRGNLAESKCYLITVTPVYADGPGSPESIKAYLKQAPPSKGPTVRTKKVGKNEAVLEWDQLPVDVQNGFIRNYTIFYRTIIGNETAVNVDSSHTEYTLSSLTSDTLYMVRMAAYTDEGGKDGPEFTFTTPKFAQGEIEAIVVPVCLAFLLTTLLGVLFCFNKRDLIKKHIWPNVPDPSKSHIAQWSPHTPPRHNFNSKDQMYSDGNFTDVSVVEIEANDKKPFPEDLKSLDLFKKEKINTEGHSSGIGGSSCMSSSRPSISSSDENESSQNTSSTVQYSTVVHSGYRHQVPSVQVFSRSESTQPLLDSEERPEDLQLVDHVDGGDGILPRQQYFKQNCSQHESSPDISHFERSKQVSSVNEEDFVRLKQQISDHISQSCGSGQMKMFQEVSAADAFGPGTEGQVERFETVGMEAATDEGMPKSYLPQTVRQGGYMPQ
Chain of non-natural gp130:IL-11R:LIFR cytokine receptor complex on Ba/F3-gp130:IL-11R:LIFR cells (Q14626 23-422, chain 2 of 3, further chain): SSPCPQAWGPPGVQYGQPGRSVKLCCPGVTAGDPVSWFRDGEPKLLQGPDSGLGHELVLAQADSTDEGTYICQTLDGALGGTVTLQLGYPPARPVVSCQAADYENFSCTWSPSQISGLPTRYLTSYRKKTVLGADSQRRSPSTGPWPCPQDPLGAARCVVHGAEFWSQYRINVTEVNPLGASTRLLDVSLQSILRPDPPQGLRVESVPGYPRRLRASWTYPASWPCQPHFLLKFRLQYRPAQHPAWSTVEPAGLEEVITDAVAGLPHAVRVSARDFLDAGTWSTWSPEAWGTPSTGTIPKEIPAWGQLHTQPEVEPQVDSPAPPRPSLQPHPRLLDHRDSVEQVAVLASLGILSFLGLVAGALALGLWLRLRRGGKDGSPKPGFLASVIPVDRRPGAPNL
Chain of non-natural gp130:IL-11R:LIFR cytokine receptor complex on Ba/F3-gp130:IL-11R:LIFR cells (P42702 45-1097, chain 3 of 3, further chain): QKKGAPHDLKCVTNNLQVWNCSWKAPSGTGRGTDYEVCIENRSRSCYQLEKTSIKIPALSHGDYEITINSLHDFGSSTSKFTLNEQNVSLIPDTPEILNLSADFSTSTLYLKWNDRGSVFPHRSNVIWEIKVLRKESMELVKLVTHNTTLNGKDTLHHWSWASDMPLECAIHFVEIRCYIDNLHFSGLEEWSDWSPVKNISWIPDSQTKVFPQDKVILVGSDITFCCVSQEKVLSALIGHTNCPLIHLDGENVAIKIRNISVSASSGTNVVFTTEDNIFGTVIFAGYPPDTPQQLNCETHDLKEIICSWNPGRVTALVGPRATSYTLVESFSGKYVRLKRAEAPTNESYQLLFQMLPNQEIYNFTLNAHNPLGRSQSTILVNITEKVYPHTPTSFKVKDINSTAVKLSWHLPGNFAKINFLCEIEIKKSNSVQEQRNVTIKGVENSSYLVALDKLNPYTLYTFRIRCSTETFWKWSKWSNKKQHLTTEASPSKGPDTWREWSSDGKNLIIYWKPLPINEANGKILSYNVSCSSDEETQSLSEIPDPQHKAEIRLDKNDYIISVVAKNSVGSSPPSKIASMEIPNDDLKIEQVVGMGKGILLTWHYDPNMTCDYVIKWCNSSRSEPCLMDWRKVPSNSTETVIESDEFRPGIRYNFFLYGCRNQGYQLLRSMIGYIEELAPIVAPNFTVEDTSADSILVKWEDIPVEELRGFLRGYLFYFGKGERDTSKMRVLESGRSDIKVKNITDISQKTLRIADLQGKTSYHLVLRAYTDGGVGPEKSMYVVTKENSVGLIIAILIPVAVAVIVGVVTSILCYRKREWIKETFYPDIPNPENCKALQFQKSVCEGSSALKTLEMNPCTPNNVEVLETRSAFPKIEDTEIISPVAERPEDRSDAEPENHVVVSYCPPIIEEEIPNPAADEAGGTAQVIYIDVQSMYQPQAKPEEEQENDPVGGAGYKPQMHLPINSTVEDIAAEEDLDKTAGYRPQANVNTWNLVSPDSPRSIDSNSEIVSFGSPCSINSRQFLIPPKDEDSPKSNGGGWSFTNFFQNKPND

Substance “cytokimera GIL-11 (from UniProt P20809 22-57; P15018 64-88; P20809 73-110; P15018 119-138; P20809 129-161; P15018 172-189; P20809 180-199) (ligand)” showed a proliferation of Ba/F3-gp130:IL-11R:LIFR cells (CellTiter Blue), GIL-11 0.0005–500 ng/ml; EC50 of 1.44 ng/mL.

The values above are taken from paper PMC10105715.
